Several values for one entry are separate records, joined by “and”; a condition that tells them apart may be missing. Identical values can stand only once.
What follows are substances tested against human C5a receptor (C5aR) (human) (UniProt P21730) (assay: not given).
human C5a receptor (C5aR) (human), sequence (P21730 whole entry): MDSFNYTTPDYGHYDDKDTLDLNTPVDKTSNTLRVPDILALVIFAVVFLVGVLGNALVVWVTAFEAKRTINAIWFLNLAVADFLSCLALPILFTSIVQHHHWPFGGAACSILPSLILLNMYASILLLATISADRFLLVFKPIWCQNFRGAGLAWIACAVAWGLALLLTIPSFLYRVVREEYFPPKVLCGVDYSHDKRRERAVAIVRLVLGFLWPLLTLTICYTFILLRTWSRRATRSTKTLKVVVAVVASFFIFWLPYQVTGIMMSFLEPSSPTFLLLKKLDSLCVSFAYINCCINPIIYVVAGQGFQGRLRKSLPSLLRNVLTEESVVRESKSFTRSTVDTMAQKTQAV

| Substance | IC50 (read off the curve) [ng/mL] |
| --- | --- |
| Chemotaxis Inhibitory Protein of Staphylococcus aureus (CHIPS), wildtype, amino acids 1-121 (from UniProt A6QIG7 29-149) | 0.07 |

The substances below were run against CD88-N-term peptide ABCF-1 (biotinylated C5aR peptide) (UniProt P21730) (assay: C5aR peptide ELISA).
CD88-N-term peptide ABCF-1 (biotinylated C5aR peptide), sequence (P21730 7-28 limits assumed): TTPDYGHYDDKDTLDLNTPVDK

| Substance | specific activity (%) |
| --- | --- |
| CHIPS K69A control (lysate), A6QIG7 29-140 | 116 |
| CHIPS clone 1F8 (Y48H, D83G, L90P), A6QIG7 29-140 | 93 |
| CHIPS clone 2C9 (K54R, K69R, K100R, K105R), A6QIG7 29-140 | 115 |
| CHIPS clone 2D5 (K40E, K69A, N111K, G112V), A6QIG7 29-138 | 132 |
| CHIPS clone 2H5 (K69A, K100R, K101R), A6QIG7 29-140 | 113 |
| CHIPS clone 3C4 (K69A, G112V), A6QIG7 29-139 | 94 |
| CHIPS clone 3H1 (G112V) (from UniProt A6QIG7 29-139) (other; other documents disagree on this pair) | 109 |
| CHIPS clone 4E5 (K69T), A6QIG7 29-140 | 76 |
| CHIPS clone 5H1 (K50N), A6QIG7 29-140 | 88 |
| CHIPS clone 6E1 (S104Y), A6QIG7 29-140 | 76 |
| CHIPS clone 7B3 (N111I) (from UniProt A6QIG7 29-140) (other; other documents disagree on this pair) | 140 |
| CHIPS clone 7E4 (K40N, K92R), A6QIG7 29-140 | 65 |
| CHIPSwt control (lysate) (from UniProt A6QIG7 29-149) (other; other documents disagree on this pair) | 106 |

These substances were tested against CD88-N-term peptide ABCF-1 (biotinylated C5aR peptide) (UniProt P21730) (assay: C5aR peptide ELISA, lysate).

| Substance | pept-ELISA bindn (%) | Abs 492 nm | Pep. bind. | Pep. bind. Log (ng/ml) | Spec. activity pep/expr (%) |
| --- | --- | --- | --- | --- | --- |
| CHIPS E67A (from UniProt A6QIG7 29-149) (other; other documents disagree on this pair) | 52% and 39% | – | – | – | – |
| CHIPS G33A (from UniProt A6QIG7 29-149) (other; other documents disagree on this pair) | 13% | – | – | – | – |
| CHIPS G52A (from UniProt A6QIG7 29-149) (other; other documents disagree on this pair) | 19% and 20% | – | – | – | – |
| CHIPS K69A control (lysate), A6QIG7 29-140 | 15% | 1.41 and 1.39 | 126 ng/mL and 120 ng/mL | 2.1 log ng/ml and 2.08 log ng/ml | 116% and 112% |
| CHIPS L34A (from UniProt A6QIG7 29-149) (other; other documents disagree on this pair) | 13% and 12% | – | – | – | – |
| CHIPS L76A (from UniProt A6QIG7 29-149) (other; other documents disagree on this pair) | 1% and 2% | – | – | – | – |
| CHIPS L90A (from UniProt A6QIG7 29-149) (other; other documents disagree on this pair) | 25% and 24% | – | – | – | – |
| CHIPS N31A (from UniProt A6QIG7 29-149) (other; other documents disagree on this pair) | 16% and 23% | – | – | – | – |
| CHIPS N55A (from UniProt A6QIG7 29-149) (other; other documents disagree on this pair) | 8% and 9% | – | – | – | – |
| CHIPS P35A (from UniProt A6QIG7 29-149) (other; other documents disagree on this pair) | 54% and 68% | – | – | – | – |
| CHIPS P79A (from UniProt A6QIG7 29-149) (other; other documents disagree on this pair) | 28% and 25% | – | – | – | – |
| CHIPS Q58A (from UniProt A6QIG7 29-149) (other; other documents disagree on this pair) | 2% and 3% | – | – | – | – |
| CHIPS S32A (from UniProt A6QIG7 29-149) (other; other documents disagree on this pair) | 15% | – | – | – | – |
| CHIPS S56A (from UniProt A6QIG7 29-149) (other; other documents disagree on this pair) | 18% and 16% | – | – | – | – |
| CHIPS S107A (from UniProt A6QIG7 29-149) (other; other documents disagree on this pair) | 11% | – | – | – | – |
| CHIPS T53A (from UniProt A6QIG7 29-149) (other; other documents disagree on this pair) | 7% | – | – | – | – |
| CHIPS Y48A (from UniProt A6QIG7 29-149) (other; other documents disagree on this pair) | 86% and 70% | – | – | – | – |
| CHIPS Y108A (from UniProt A6QIG7 29-149) (other; other documents disagree on this pair) | 1% | – | – | – | – |
| CHIPSwt control (lysate) (from UniProt A6QIG7 29-149) (other; other documents disagree on this pair) | 21% | 1.48 and 1.41 | 155 ng/mL and 126 ng/mL | 2.19 log ng/ml and 2.1 log ng/ml | 119% and 106% |

Each substance was assayed against human C5a receptor (C5aR) (human) (UniProt P21730) (assay: flow cytometry on U937/C5aR cells, 2H7 detection).

| Substance | Binding U937cells C5aR (0.3 µg/ml) % of wt 1-112 [%] |
| --- | --- |
| Chemotaxis Inhibitory Protein of Staphylococcus aureus (CHIPS), wildtype, amino acids 1-121 (from UniProt A6QIG7 29-149) | 28 |

Each substance was assayed against human C5a receptor (C5aR) (human) (UniProt P21730) (assay: dual fMLP-F/α-C5aR-PE flow cytometry on neutrophils).

| Substance | Dual bind PMN (%) |
| --- | --- |
| Chemotaxis Inhibitory Protein of Staphylococcus aureus (CHIPS), wildtype, amino acids 1-121 (from UniProt A6QIG7 29-149) | 112 |
